Data on 94 variants can be found in the supplement of paper PMC10567573.

The labels stand for the following.
B1: FEM1B (parent)
chain: TLAALLLNRSESDIRYLLGYVSQQ
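Also: lentivirally expressed fusions sorted by FACS into six bins by GFP to DsRed ratio, PSI derived from sequencing read proportions per bin multiplied by bin number.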

Variants of B1 are the subject of this series. Briefly: protein stability index of a GFP-peptide fusion (GPS, HEK-293T) (PSI 1-6); higher = more stable. The note with it: c terminus: a fixed tail appended.
On to TLAALLLNGSESDIRYLLGYVSQQ, for which the protein stability index amounted to 3.4.

Turning to TLAALLLNNSESDIRYLLGYVSQQ, the protein stability index is 2.57.

TLAALLLNFSESDIRYLLGYVSQQ: the protein stability index amounted to 2.9.

With TLAALLLNSSESDIRYLLGYVSQQ, the protein stability index worked out at 2.7.

For TLAALLLNLSESDIRYLLGYVSQQ, the protein stability index came to 3.24.

As for TLAALLLNVSESDIRYLLGYVSQQ, the protein stability index stood at 2.67.

Turning to TLAALLLNCSESDIRYLLGYVSQQ, the protein stability index was determined as 2.13.

On to TLAALLLNYSESDIRYLLGYVSQQ, for which the protein stability index is 2.52.

On to TLAALLLNHSESDIRYLLGYVSQQ, for which the protein stability index came out at 1.58.

TLAALLLNQSESDIRYLLGYVSQQ: the protein stability index came to 1.96.

Regarding TLAALLLNKSESDIRYLLGYVSQQ, the protein stability index was 1.96.

TLAALLLNWSESDIRYLLGYVSQQ: the protein stability index was 2.79.

In the case of TLAAHLLNRSESDIRYLLGYVSQQ, the protein stability index came to 2.62.

With TLAASLLNRSESDIRYLLGYVSQQ, the protein stability index turned out to be 2.6.

Consider TLAAWLLNRSESDIRYLLGYVSQQ, for which the protein stability index worked out at 2.25.

Consider TLAAQLLNRSESDIRYLLGYVSQQ, for which the protein stability index worked out at 3.07.

As to TLAAVLLNRSESDIRYLLGYVSQQ, the protein stability index came out at 3.12.

TLAATLLNRSESDIRYLLGYVSQQ: the protein stability index stood at 2.71.

Regarding TLAANLLNRSESDIRYLLGYVSQQ, the protein stability index is 1.76.

TLAAYLLNRSESDIRYLLGYVSQQ: the protein stability index turned out to be 3.74.

As to TLAADLLNRSESDIRYLLGYVSQQ, the protein stability index was found to be 2.45.

On to TLAAPLLNRSESDIRYLLGYVSQQ, for which the protein stability index was 1.79.

Regarding TLAARLLNRSESDIRYLLGYVSQQ, the protein stability index stood at 3.37.

Take TLAAALLNRSESDIRYLLGYVSQQ: the protein stability index turned out to be 2.03.

Consider TLAAKLLNRSESDIRYLLGYVSQQ, for which the protein stability index was 1.44.

Turning to TLAACLLNRSESDIRYLLGYVSQQ, the protein stability index came out at 2.4.

As to TLAAGLLNRSESDIRYLLGYVSQQ, the protein stability index was determined as 1.12.

Turning to TLAAELLNRSESDIRYLLGYVSQQ, the protein stability index is 2.14.

As for TLAAFLLNRSESDIRYLLGYVSQQ, the protein stability index was determined as 5.25.

Consider TLAAILLNRSESDIRYLLGYVSQQ, for which the protein stability index turned out to be 3.24.

With TLAAMLLNRSESDIRYLLGYVSQQ, the protein stability index was 3.24.

As for TLAALLLNRLESDIRYLLGYVSQQ, the protein stability index came to 3.05.

As for TLAALLLNRGESDIRYLLGYVSQQ, the protein stability index amounted to 1.53.

Consider TLAALLLNRMESDIRYLLGYVSQQ, for which the protein stability index turned out to be 1.87.

On to TLAALLLNRHESDIRYLLGYVSQQ, for which the protein stability index turned out to be 4.65.

On to TLAALLLNRYESDIRYLLGYVSQQ, for which the protein stability index stood at 2.41.

As for TLAALLLNRFESDIRYLLGYVSQQ, the protein stability index was 3.1.

As to TLAALLLNRNESDIRYLLGYVSQQ, the protein stability index was 2.29.

As to TLAALLLNRIESDIRYLLGYVSQQ, the protein stability index was 3.57.

As for TLAALLLNRPESDIRYLLGYVSQQ, the protein stability index is 3.81.

Turning to TLAALLLNRAESDIRYLLGYVSQQ, the protein stability index came to 3.37.

As for TLAALLLNRQESDIRYLLGYVSQQ, the protein stability index came to 4.48.

Consider TLAALLLNRWESDIRYLLGYVSQQ, for which the protein stability index was found to be 3.07.

Regarding TLAALLLNRVESDIRYLLGYVSQQ, the protein stability index amounted to 1.87.

In the case of TLAALLLNRKESDIRYLLGYVSQQ, the protein stability index is 2.28.

In the case of TLAALLLNRCESDIRYLLGYVSQQ, the protein stability index came out at 2.4.

For TLAALLLNREESDIRYLLGYVSQQ, the protein stability index stood at 3.2.

On to TNAALLLNRSESDIRYLLGYVSQQ, for which the protein stability index turned out to be 1.89.

Consider TAAALLLNRSESDIRYLLGYVSQQ, for which the protein stability index was determined as 1.7.

For the variant TWAALLLNRSESDIRYLLGYVSQQ, the protein stability index was determined as 2.87.

Turning to THAALLLNRSESDIRYLLGYVSQQ, the protein stability index was determined as 1.43.

For TCAALLLNRSESDIRYLLGYVSQQ, the protein stability index was found to be 3.06.

Consider TGAALLLNRSESDIRYLLGYVSQQ, for which the protein stability index is 2.11.

Consider TVAALLLNRSESDIRYLLGYVSQQ, for which the protein stability index turned out to be 2.68.

With TQAALLLNRSESDIRYLLGYVSQQ, the protein stability index amounted to 2.44.

Turning to TYAALLLNRSESDIRYLLGYVSQQ, the protein stability index came out at 2.2.

For TEAALLLNRSESDIRYLLGYVSQQ, the protein stability index was 2.01.

Consider TKAALLLNRSESDIRYLLGYVSQQ, for which the protein stability index stood at 1.64.

Turning to TDAALLLNRSESDIRYLLGYVSQQ, the protein stability index amounted to 2.1.

As for TFAALLLNRSESDIRYLLGYVSQQ, the protein stability index was determined as 2.56.

For TSAALLLNRSESDIRYLLGYVSQQ, the protein stability index came out at 1.57.

For TRAALLLNRSESDIRYLLGYVSQQ, the protein stability index was found to be 1.84.

With TPAALLLNRSESDIRYLLGYVSQQ, the protein stability index was determined as 1.93.

Turning to TMAALLLNRSESDIRYLLGYVSQQ, the protein stability index stood at 2.24.

Consider TTAALLLNRSESDIRYLLGYVSQQ, for which the protein stability index worked out at 1.77.

Take TLACLLLNRSESDIRYLLGYVSQQ: the protein stability index was determined as 2.3.

Consider TLAHLLLNRSESDIRYLLGYVSQQ, for which the protein stability index is 2.97.

In the case of TLAFLLLNRSESDIRYLLGYVSQQ, the protein stability index was 3.05.

As to TLAVLLLNRSESDIRYLLGYVSQQ, the protein stability index is 2.42.

Turning to TLAILLLNRSESDIRYLLGYVSQQ, the protein stability index is 2.37.

Take TLAQLLLNRSESDIRYLLGYVSQQ: the protein stability index is 2.05.

In the case of TLADLLLNRSESDIRYLLGYVSQQ, the protein stability index is 2.37.

Take TLAGLLLNRSESDIRYLLGYVSQQ: the protein stability index amounted to 1.68.

On to TLAPLLLNRSESDIRYLLGYVSQQ, for which the protein stability index turned out to be 2.09.

In the case of TLAELLLNRSESDIRYLLGYVSQQ, the protein stability index is 2.94.

As for TLAKLLLNRSESDIRYLLGYVSQQ, the protein stability index came to 2.59.

On to TLASLLLNRSESDIRYLLGYVSQQ, for which the protein stability index was determined as 3.29.

As for TLAMLLLNRSESDIRYLLGYVSQQ, the protein stability index is 1.5.

For TLANLLLNRSESDIRYLLGYVSQQ, the protein stability index was 2.53.

As for TLAYLLLNRSESDIRYLLGYVSQQ, the protein stability index came out at 3.38.

Regarding TLARLLLNRSESDIRYLLGYVSQQ, the protein stability index came to 3.48.

For TLAWLLLNRSESDIRYLLGYVSQQ, the protein stability index came out at 2.28.

Turning to TLATLLLNRSESDIRYLLGYVSQQ, the protein stability index stood at 2.35.

On to TLAALLLNRSELDIRYLLGYVSQQ, for which the protein stability index worked out at 2.36.

As to TLAALLLNRSEFDIRYLLGYVSQQ, the protein stability index was 2.89.

In the case of TLAALLLNRSEHDIRYLLGYVSQQ, the protein stability index was found to be 2.48.

On to TLAALLLNRSEIDIRYLLGYVSQQ, for which the protein stability index came to 3.15.

For TLAALLLNRSEDDIRYLLGYVSQQ, the protein stability index was determined as 2.71.

For TLAALLLNRSEMDIRYLLGYVSQQ, the protein stability index was 2.33.

For the variant TLAALLLNRSEEDIRYLLGYVSQQ, the protein stability index stood at 3.18.

As for TLAALLLNRSENDIRYLLGYVSQQ, the protein stability index was 2.79.

Take TLAALLLNRSEKDIRYLLGYVSQQ: the protein stability index is 3.14.

With TLAALLLNRSEGDIRYLLGYVSQQ, the protein stability index was found to be 3.69.

In the case of TLAALLLNRSEADIRYLLGYVSQQ, the protein stability index worked out at 2.19.
